Read-outs that look alike come from different tables or passages of the source.
Key:
NTT1ΔC = target: T1, NTT1ΔC (Arabidopsis thaliana, UniProt Q39002); assay: tryptophan fluorescence variation, two-site fit; format: binding; conditions: 20 mM Tris pH 8, 10 mM NaCl, 0.1% LAPAO, 25°C, stronger site of two-site fit
T1 construct: gene AATP1; mature form (first 79 residues removed) with last 41 residues deleted (deletion borders computed from a recalled length of 624); tagged; E. coli; purified in LAPAO; partly aggregated
T1 sequence (Q39002 80-583): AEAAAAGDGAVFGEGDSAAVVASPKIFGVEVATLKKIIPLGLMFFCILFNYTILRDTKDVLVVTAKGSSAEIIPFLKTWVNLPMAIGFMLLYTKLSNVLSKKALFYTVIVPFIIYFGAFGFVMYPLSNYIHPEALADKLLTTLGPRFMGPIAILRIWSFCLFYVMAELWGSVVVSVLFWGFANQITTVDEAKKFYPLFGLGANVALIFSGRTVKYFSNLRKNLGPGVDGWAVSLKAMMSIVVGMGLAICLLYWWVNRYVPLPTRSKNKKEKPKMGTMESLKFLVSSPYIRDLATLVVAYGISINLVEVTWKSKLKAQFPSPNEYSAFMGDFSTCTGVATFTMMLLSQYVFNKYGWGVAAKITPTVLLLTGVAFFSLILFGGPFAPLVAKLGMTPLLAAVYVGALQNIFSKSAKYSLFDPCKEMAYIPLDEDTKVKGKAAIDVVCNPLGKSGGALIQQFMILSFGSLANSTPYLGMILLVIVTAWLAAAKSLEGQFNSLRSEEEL
Description: tryptophan fluorescence variation, two-site fit on NTT1ΔC

[1] = target: T2, NTT1 (plastid / chloroplast ATP/ADP transporter 1) (Arabidopsis thaliana, UniProt Q39002); assay: tryptophan fluorescence quenching; format: binding; conditions: 20 mM Tris pH 8, 10 mM NaCl, 0.1% LAPAO, 25°C; no Mg2+, no Pi; one-site fit; read-out: Affinity
T2 construct: gene AATP1; mature form lacking first 79 residues (transit peptide), N-terminal His-tag, C-terminal StreptagII; E. coli; purified in LAPAO; monomers and dimers
T2 sequence (Q39002 80-624): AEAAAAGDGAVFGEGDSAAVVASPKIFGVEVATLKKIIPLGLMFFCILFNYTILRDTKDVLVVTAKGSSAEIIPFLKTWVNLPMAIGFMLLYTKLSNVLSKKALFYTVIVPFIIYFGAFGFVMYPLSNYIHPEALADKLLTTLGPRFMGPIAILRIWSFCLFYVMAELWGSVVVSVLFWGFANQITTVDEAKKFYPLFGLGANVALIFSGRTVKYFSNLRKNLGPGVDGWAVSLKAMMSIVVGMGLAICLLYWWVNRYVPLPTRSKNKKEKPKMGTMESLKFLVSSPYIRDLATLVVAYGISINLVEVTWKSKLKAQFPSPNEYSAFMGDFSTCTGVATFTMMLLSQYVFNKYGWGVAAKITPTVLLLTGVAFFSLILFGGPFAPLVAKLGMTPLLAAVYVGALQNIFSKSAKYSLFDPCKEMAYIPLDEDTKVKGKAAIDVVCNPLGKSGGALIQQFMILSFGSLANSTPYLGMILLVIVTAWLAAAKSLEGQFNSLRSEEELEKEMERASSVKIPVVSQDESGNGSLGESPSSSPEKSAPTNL
Description: tryptophan fluorescence quenching on NTT1 (plastid / chloroplast ATP/ADP transporter 1)

[2] = target: T3, NTT1 (plastid / chloroplast ATP/ADP transporter 1) (Arabidopsis thaliana, UniProt Q39002, E246K); assay: tryptophan fluorescence variation; format: binding
T3 construct: gene AATP1; mature form lacking first 79 residues (transit peptide), N-terminal His-tag, C-terminal StreptagII; E. coli; purified in LAPAO; monomers and dimers
T3 sequence (Q39002 80-624 E246K): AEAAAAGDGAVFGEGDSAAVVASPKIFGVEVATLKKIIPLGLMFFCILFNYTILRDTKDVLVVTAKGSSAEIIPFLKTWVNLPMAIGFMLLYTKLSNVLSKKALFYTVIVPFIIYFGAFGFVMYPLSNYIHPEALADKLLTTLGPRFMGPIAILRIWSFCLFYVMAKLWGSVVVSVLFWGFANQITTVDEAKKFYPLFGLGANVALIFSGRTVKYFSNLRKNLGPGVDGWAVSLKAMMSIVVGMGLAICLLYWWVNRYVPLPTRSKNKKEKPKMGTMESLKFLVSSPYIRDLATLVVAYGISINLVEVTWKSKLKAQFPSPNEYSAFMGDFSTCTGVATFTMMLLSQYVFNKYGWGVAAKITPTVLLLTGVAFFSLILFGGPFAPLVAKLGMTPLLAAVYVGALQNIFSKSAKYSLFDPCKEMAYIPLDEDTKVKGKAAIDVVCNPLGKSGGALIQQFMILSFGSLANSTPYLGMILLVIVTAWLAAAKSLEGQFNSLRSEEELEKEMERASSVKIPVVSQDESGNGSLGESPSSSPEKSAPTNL
Description: (§1) tryptophan fluorescence variation on NTT1 (plastid / chloroplast ATP/ADP transporter 1)

[3] = target: T4, NTT1 (plastid / chloroplast ATP/ADP transporter 1) (Arabidopsis thaliana, UniProt Q39002, K528R); assay: tryptophan fluorescence variation; format: binding
T4 construct: gene AATP1; mature form lacking first 79 residues (transit peptide), N-terminal His-tag, C-terminal StreptagII; E. coli; purified in LAPAO; monomers and dimers
T4 sequence (Q39002 80-624 K528R): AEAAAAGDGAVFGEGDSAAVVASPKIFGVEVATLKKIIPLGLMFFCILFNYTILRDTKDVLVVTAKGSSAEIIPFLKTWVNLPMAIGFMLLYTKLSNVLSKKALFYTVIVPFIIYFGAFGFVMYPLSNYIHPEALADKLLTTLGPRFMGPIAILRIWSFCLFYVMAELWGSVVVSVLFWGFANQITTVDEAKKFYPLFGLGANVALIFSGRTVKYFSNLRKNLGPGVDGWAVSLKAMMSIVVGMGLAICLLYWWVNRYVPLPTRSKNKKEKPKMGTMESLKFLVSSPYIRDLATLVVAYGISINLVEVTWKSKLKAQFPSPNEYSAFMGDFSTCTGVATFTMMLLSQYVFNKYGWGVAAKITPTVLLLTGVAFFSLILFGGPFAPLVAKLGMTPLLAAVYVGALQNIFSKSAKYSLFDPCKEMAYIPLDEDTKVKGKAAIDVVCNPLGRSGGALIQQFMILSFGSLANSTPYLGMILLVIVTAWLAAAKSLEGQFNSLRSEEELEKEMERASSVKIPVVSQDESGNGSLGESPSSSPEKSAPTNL
Description: as §1

[4] = target: T5, NTT1 (plastid / chloroplast ATP/ADP transporter 1) (Arabidopsis thaliana, UniProt Q39002, K528E); assay: tryptophan fluorescence variation; format: binding; conditions: read-out: Affinity for ADP
T5 construct: gene AATP1; mature form lacking first 79 residues (transit peptide), N-terminal His-tag, C-terminal StreptagII; E. coli; purified in LAPAO; monomers and dimers
T5 sequence (Q39002 80-624 K528E): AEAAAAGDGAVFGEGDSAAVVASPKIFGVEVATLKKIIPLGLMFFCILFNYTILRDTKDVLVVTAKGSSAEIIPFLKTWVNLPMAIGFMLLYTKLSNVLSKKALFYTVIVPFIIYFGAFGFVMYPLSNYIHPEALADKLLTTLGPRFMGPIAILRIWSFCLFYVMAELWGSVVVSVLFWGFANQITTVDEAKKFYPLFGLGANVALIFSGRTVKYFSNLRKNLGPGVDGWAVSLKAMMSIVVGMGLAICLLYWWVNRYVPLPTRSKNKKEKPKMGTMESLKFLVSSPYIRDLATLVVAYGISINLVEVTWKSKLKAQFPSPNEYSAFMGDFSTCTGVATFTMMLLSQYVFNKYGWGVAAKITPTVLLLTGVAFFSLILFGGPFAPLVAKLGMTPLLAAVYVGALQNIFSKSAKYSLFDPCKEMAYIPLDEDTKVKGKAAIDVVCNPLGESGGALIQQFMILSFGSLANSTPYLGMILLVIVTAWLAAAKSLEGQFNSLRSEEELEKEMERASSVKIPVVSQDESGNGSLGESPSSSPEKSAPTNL
Description: as §1

[5] = target: T6, NTT1 (plastid / chloroplast ATP/ADP transporter 1) (Arabidopsis thaliana, UniProt Q39002, K156R); assay: tryptophan fluorescence variation; format: binding; conditions: read-out: Affinity for ATP
T6 construct: gene AATP1; mature form lacking first 79 residues (transit peptide), N-terminal His-tag, C-terminal StreptagII; E. coli; purified in LAPAO; monomers and dimers
T6 sequence (Q39002 80-624 K156R): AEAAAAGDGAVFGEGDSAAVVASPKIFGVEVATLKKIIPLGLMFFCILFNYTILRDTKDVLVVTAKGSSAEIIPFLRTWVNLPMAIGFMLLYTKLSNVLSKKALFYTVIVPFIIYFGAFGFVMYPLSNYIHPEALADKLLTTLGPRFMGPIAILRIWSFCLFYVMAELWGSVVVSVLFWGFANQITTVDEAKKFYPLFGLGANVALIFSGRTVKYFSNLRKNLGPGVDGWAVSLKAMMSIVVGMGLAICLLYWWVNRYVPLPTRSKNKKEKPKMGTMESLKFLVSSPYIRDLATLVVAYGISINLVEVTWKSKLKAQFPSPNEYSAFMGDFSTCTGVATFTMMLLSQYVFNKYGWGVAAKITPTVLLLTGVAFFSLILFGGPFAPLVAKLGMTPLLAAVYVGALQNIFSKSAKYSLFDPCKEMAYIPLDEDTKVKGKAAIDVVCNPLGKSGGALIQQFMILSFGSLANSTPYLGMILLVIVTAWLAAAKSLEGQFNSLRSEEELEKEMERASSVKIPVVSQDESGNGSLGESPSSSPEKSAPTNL
Description: as §1

[6] = target: Chloroplast ATP/ADP transporter 1 (NTT1), mature form (Arabidopsis thaliana); assay: AUC; sedimentation velocity, NTT1 solubilised and purified in β-DDM; 42,000 rpm, 10°C
[7] = target: Chloroplast ATP/ADP transporter 1 (NTT1), mature form (Arabidopsis thaliana); assay: AUC; sedimentation velocity, purified protein in 20 mM Tris pH 8, 100 mM NaCl, 0.1% LAPAO, 3 mM desthiobiotin; 42,000 rpm, 10°C; c(s) analysis, absorbance and interference
[8] = target: Chloroplast ATP/ADP transporter 1 (NTT1), mature form (Arabidopsis thaliana); assay: AUC; sedimentation velocity, NTT1 exchanged from detergent into amphipols; 42,000 rpm, 10°C
[9] = target: Chloroplast ATP/ADP transporter 1 (NTT1), mature form (Arabidopsis thaliana); assay: AUC; sedimentation velocity, NTT1 solubilised and purified in FC12; 42,000 rpm, 10°C
[10] = target: Chloroplast ATP/ADP transporter 1 (NTT1), mature form (Arabidopsis thaliana); assay: Multiple Angle Laser Light Scattering; purified NTT1 in LAPAO; data not shown
[11] = substrate: Nc1ncnc2c1ncn2[C@@H]1O[C@H](COP(=O)(O)OP(=O)(O)OP(=O)(O)O)[C@@H](O)[C@H]1O; assay: radioactive ATP uptake in whole E. coli cells; format: cell-based, Arabidopsis thaliana; conditions: transport Km; C-terminal Mistic fusion
Description: radioactive ATP uptake in whole E. coli cells on […]

[12] = substrate: Nc1ncnc2c1ncn2[C@@H]1O[C@H](COP(=O)(O)OP(=O)(O)O)[C@@H](O)[C@H]1O; assay: ATP/ADP exchange by luciferase luminescence, whole E. coli cells; format: cell-based, Arabidopsis thaliana; conditions: transport Km; C-terminal Mistic fusion
Description: ATP/ADP exchange by luciferase luminescence, whole E. coli cells on NTT1mis

Molecule: Nc1ncnc2c1ncn2[C@@H]1O[C@H](COP(=O)(O)OP(=O)(O)O)[C@@H](O)[C@H]1O [ADP]
- Kd (NTT1ΔC; read-out: Affinity for ADP): 0.6 ± 0.7 µM
- Kd [1]: 8.6 ± 1.5 µM
- Kd ([2]; read-out: Affinity for ADP): 14 ± 5.1 µM
- Kd ([3]; read-out: Affinity for ADP): 33.5 ± 22.3 µM
- Kd [4]: 19 ± 24.1 µM

Molecule: Nc1ncnc2c1ncn2[C@@H]1O[C@H](COP(=O)(O)OP(=O)(O)OP(=O)(O)O)[C@@H](O)[C@H]1O [ATP]
- Kd (NTT1ΔC; read-out: Affinity for ATP): 0.7 ± 0.5 µM
- Kd [1]: 4.2 ± 0.7 µM
- Kd [5]: 91.2 ± 58.8 µM
- Kd ([2]; read-out: Affinity for ATP): 1.9 ± 1.7 µM
- Kd ([3]; read-out: Affinity for ATP): > 1000 µM

Molecule: Chloroplast ATP/ADP transporter 1 (NTT1), mature form (natural protein)
- dimer (% of the three species) [6]: 29%
- dimer (% of the three species) [7]: 35%
- stoichiometry N [7]: 2
- tetramer (% of the three species) [7]: 23%
- dimer (% of the three species) [8]: 33%
- tetramer (% of the three species) [8]: 23%
- dimer (% of the three species) [9]: 35%
- tetramer (% of the three species) [9]: 18%
- stoichiometry N [10]: 4

B1: NTT1mis (Arabidopsis thaliana) (protein)
chain: AEAAAAGDGAVFGEGDSAAVVASPKIFGVEVATLKKIIPLGLMFFCILFNYTILRDTKDVLVVTAKGSSAEIIPFLKTWVNLPMAIGFMLLYTKLSNVLSKKALFYTVIVPFIIYFGAFGFVMYPLSNYIHPEALADKLLTTLGPRFMGPIAILRIWSFCLFYVMAELWGSVVVSVLFWGFANQITTVDEAKKFYPLFGLGANVALIFSGRTVKYFSNLRKNLGPGVDGWAVSLKAMMSIVVGMGLAICLLYWWVNRYVPLPTRSKNKKEKPKMGTMESLKFLVSSPYIRDLATLVVAYGISINLVEVTWKSKLKAQFPSPNEYSAFMGDFSTCTGVATFTMMLLSQYVFNKYGWGVAAKITPTVLLLTGVAFFSLILFGGPFAPLVAKLGMTPLLAAVYVGALQNIFSKSAKYSLFDPCKEMAYIPLDEDTKVKGKAAIDVVCNPLGKSGGALIQQFMILSFGSLANSTPYLGMILLVIVTAWLAAAKSLEGQFNSLRSEEELEKEMERASSVKIPVVSQDESGNGSLGESPSSSPEKSAPTNL
notes: expressed in E. coli, assayed in whole cells; with Protein mistic
- Km [11]: 13.2 ± 5.3 µM
- Km [12]: 12.0 ± 5.2 µM

From publication PMC3306366, “Oligomeric Status and Nucleotide Binding Properties of the Plastid ATP/ADP Transporter 1: Toward a Molecular Understanding of the Transport Mechanism” (PLoS ONE, 2012)
